Molecular target: T1, β2-microglobulin (UniProt P61769 21-119)
T1 construct: also called beta2-microglobulin
Assay: ELISA

- binding result: no binding
B1: A2-DKK1 mAb (C2) (antibody, V domains shown)
VH: DVQLVESGGGLVQPGGSRKLSCAASGFTFSSFGMHWVRQAPEKGLEWVAYISSGSSTIYYADTVKGRFTISRDNPKNTLFLQMTSLRSEDTAMYYCARPYYYGSTYDAMDYWGQGTSVTVSS
VL: DIVMTQSHKLMSTSVGDRVTITCKASQDVGSTVAWYQQKPGQSPKLLIYWTSTRHTGVPDRFTGSGSGTDFTLTISNVQSVDLAVYFCQKFGSYPLTFGGGTKLEIK
notes: Murine monoclonal antibody from a Balb/c x SP2/0 hybridoma; also called C2 mAb; antibody C2
